In US20090155164A1 (Amgen, published 2009):

B1: anti-c-fms IgG2 clone 2.360 (parent form, PT) (antibody, V domains shown)
VH: QVQLVQSGAEVKKPGASVKVSCKVSGYTLTELSMHWVRQAPGKGLEWMGGFDPEDGETIYAQKFQGRVTMTEDTSTDTVYMELSSLRSEDTAVYYCATGVMITFGGVIVGHSYYGMDVWGQGTTVTVSS
VL: DIQMTQSPSSLSASVGDRVTITCRASQGINNYLAWYQQKPGKVPQLLIYVASTLQSGVPSRFSGSGSGTDFTLTISSLQPEDVATYYCQKYNSGPFTFGPGTKVDIKR
modifications: N-terminal glutamine cyclized to pyroglutamic acid; C-terminal lysine absent
notes: Recombinant human IgG2 kappa from COS/PKB cells
B2: anti-c-fms IgG2 clone 1.2 (parent form, PT) (antibody, V domains shown)
VH: QVQLVQSGAEVKKPGASVKVSCKASGYTFTSYGISWVRQAPGQGLEWMGWISAYNGNTNYAQKLQGRVTMTTDTSTSTAYMELRSLRSDDTAVYYCARESWFGEVFFDYWGQGTLVTVSS
VL: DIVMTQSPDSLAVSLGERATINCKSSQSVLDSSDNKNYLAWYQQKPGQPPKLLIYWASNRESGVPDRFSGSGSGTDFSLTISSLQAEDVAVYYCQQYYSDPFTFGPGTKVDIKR
modifications: N-terminal glutamine cyclized to pyroglutamic acid; C-terminal lysine absent
notes: Recombinant human IgG2 kappa from COS/PKB cells (hybridoma was IgG1); also called 1.2.1; Clone 1.2 PT
B3: anti-c-fms IgG2 clone 1.109 (parent form, PT) (antibody, V domains shown)
VH: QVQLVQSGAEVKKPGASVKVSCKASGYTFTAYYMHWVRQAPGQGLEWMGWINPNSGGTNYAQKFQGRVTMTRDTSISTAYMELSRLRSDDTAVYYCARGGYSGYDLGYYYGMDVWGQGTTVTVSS
VL: DIQMTQSPSSLSASVGDRVTITCQASQNISNFLDWYQQKPGKAPNLLIYDASDLDPGVPSRFSGSGSGTDFTFTISSLQPEDIATYYCQQYVSLPLTFGGGTKVEIKR
modifications: N-linked glycosylation site at Asn-28 in CDR1, reported as likely occupied; N-terminal glutamine cyclized to pyroglutamic acid; C-terminal lysine absent
notes: Recombinant human IgG2 kappa from COS/PKB cells (hybridoma was IgG1)

How the values were obtained:
[1] = target: T1, human c-fms, full length, on cells (human, UniProt P07333 20-972); test: cell-based or functional assay
T1 sequence (P07333 20-972): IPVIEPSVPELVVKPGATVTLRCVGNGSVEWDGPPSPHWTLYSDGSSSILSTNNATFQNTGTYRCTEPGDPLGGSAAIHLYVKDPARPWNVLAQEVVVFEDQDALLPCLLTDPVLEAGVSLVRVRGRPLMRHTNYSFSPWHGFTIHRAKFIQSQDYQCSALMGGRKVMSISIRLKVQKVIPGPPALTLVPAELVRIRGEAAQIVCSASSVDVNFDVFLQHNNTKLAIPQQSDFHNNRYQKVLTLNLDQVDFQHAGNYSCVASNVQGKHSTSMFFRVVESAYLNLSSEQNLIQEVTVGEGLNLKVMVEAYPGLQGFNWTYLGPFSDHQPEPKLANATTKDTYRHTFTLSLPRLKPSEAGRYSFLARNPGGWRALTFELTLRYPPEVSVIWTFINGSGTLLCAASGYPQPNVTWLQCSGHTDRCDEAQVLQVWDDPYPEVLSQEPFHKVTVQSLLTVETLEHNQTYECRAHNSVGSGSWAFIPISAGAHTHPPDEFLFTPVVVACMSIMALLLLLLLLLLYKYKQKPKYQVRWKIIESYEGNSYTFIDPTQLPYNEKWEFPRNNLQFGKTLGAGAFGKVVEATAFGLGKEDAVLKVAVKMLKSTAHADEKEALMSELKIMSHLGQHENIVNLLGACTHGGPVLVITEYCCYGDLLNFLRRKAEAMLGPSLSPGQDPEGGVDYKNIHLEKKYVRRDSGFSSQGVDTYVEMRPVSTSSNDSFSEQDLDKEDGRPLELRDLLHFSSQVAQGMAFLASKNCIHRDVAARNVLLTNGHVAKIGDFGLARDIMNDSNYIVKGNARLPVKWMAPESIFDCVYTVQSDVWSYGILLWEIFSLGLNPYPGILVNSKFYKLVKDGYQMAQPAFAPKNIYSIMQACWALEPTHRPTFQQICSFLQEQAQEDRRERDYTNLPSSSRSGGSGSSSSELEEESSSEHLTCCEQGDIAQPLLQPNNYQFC

[2] = target: T1, human c-fms, full length, on cells; test: cell-based or functional assay; remark: listed apart in the source
[3] = target: T2, cynomolgus monkey c-fms on primary bone marrow cells (cynomolgus monkey); test: cell-based or functional assay
[4] = target: T1, human c-fms, full length, on cells; test: cell-based or functional assay; remark: listed apart in the source
[5] = target: T2, cynomolgus monkey c-fms on primary bone …; test: cell-based or functional assay; remark: listed apart in the source
[6] = target: T3, monomeric human c-fms (residues 1-512)-pHis (human, UniProt P07333 20-512); test: Biacore (summary table)
T3 construct: Construct stated as residues 1-512; signal stated as amino acids 1-19 and left out; also called human c-fms (1-512).pHIS; monomeric c-fms
T3 sequence (P07333 20-512): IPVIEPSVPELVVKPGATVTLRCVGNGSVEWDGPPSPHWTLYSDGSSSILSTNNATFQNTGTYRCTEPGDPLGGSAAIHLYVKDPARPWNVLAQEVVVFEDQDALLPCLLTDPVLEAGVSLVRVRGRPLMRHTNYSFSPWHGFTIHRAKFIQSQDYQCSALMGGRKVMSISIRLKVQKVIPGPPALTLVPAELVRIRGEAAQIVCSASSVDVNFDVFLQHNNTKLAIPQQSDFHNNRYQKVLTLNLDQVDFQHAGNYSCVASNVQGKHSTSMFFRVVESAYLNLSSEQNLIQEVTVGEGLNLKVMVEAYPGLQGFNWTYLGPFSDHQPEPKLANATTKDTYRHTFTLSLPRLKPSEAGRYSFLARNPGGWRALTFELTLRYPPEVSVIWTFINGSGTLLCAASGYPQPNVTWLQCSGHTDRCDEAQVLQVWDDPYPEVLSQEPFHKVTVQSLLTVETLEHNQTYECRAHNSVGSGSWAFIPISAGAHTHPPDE
Method: (§1) Anti-c-fms 1.2 or 1.2 SM at 0.25 μg/ml was injected over goat anti-human IgG, Fcγ in one flow cell for 2 minutes at 10 μl/min to obtain a surface density of ˜47 RUs. Another flow cell with goat anti-human IgG, Fcγ alone was used as a reference surface. Each assay started with ten cycles of buffer as the analyte to stabilize the signal. […] Each complex was allowed to associate for 2 minutes, and dissociate for 5 minutes. The surfaces were regenerated after each c-fms or buffer injection with a 30-second pulse of 10 mM glycine HCl, pH 1.5 at 100 μl/min, followed by a 30-second injection of buffer.
(§2) Other anti-c-fms antibodies were tested in a similar manner, but changes were made to the protocol to account for differences in binding characteristics.
(§3) Data was double referenced by subtracting the reference surface responses to remove bulk refractive index changes, and then subtracting the averaged buffer blank response to remove systematic artifacts from the experimental flow cells.

[7] = target: T3, monomeric human c-fms (residues …); test: Biacore, monomeric c-fms
Method: The binding affinities of the somatic mutation corrected antibodies to monomeric c-fms protein were measured by surface plasmon resonance using a Biacore 3000 instrument.
The affinity of human c-fms (1-512). pHIS (Amgen) for the anti-c-fms mAbs was measured by Biacore. Experiments were conducted at 25° C. using a Biacore 3000 instrument (Biacore AB) equipped with a CM4 sensor chip. Sensor chips, amine coupling reagents (EDC (1-ethyl-3(3-dimethylaminopropyl)-carbodiimide hydrochloride), NHS (N-hydroxysuccinimide), and ethanolamine-HCl, pH 8.5), 10 mM sodium acetate, pH 5.5, HBS-EP (0.01 M HEPES pH 7.4, 0.15 M NaCl, 3 mM EDTA, 0.005% v/v Surfactant P20), and 10 mM glycine-HCl, pH 1.5 were purchased from Biacore AB. Bovine serum albumin (BSA, Bovuminar Standard Powder) was purchased from Serological Corporation. AffiniPure Goat Anti-Human IgG, Fcγ Fragment Specific was purchased from Jackson ImmunoResearch Laboratories.
as §2

[8] = target: T1, human c-fms, full length, on cells; test: inhibition of 125I-hCSF-1 binding to AML-5 cells, 4 C; competitor: 125I-hCSF-1
Method: (§4) A saturation radioligand binding experiment was performed in conjunction with each inhibition assay in order to determine both a KD and […] for hCSF-1 binding to c-fms expressed on the surface of AML-5 cells. Mixtures were set up in 96-well round-bottom microtiter plates with total volumes of 150 μl/well. All reagents were diluted in binding media containing 0.2% sodium azide and experiments were conducted at 4° C. to minimize potential receptor internalization and shedding.
For the saturation binding assay, ¹²⁵I-hCSF-1 was serially diluted 2-fold, starting at a concentration of ˜1.7 nM and going out 12 wells to a concentration of ˜1.5 pM. Nonspecific binding was measured at a single concentration of ¹²⁵I-hCSF-1 (˜80 pM, in triplicate) in the presence of a 1,000-fold molar excess of unlabeled hCSF-1, and assumed to be a linear function of the concentration of radiolabeled hCSF-1 present.

[9] = target: T1, human c-fms, full length, on cells; test: inhibition of 125I-CSF-1 binding to AML-5 cells; competitor: 125I-CSF-1 (summary table)
Method: as §4
Both assays were incubated at 4° C. on a miniorbital shaker for 4 hours, the length of time needed to reach equilibrium as determined in time course experiments. Two 60 μl aliquots of each incubation mixture were transferred to chilled 400 μl polyethylene centrifuge tubes containing 200 μl phthalate oil and spun for 1.5 minutes in a 4° C. tabletop microfuge (Sorvall,) at 9615×g to separate cell associated ¹²⁵I-hCSF-1 from free ¹²⁵I-hCSF-1. The oil tubes were cut, and each cell pellet and supernatant collected in individual 12×75 mm glass tubes and loaded on a COBRA gamma counter (Packard Instrument Company) for cpm measurements. Cpm from duplicate aliquots taken from each well were averaged for analysis.
Mean K₁ values from 2 experiments were reported (see, TABLE 13).

[10] = target: T4, avidin-c-fms Ig-like 1 domain fusion protein (chicken; human, UniProt P07333 20-126); test: FACS, biotin beads coated with the avidin fusion protein, FITC-2.36 without competitor
T4 construct: Joined through an XhoI site; Captured on biotin beads; also called Ig1 construct; Ig-like loop 1 (IPVI-ALLP); not shown: chicken avidin, N-terminal fusion partner from pCEP4-Avidin(N)
T4 sequence (P07333 20-126 limits assumed): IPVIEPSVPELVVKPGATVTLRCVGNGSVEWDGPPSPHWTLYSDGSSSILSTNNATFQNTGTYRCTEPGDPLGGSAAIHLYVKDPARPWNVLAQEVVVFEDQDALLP

[11] = target: T3, monomeric human c-fms (residues …); test: Biacore 3000, 25 C; mAb captured on goat anti-human IgG Fc, monomeric c-fms(1-512)-pHis analyte, 1:1 fit
Method: as §1, §2, §3

[12] = target: T5, avidin-c-fms Ig-like 2 domain only fusion protein (chicken; human, UniProt P07333 85-223); test: FACS, biotin beads loaded with the avidin fusion protein; per the sheet's title 1 µg/mL anti C-FMS and 1 µg/mL mouse anti-human IgG Fc-gamma FITC secondary
T5 construct: Captured on biotin beads; also called Ig-like loop 2 alone (TEPG-AQIV); not shown: chicken avidin, N-terminal fusion partner from pCEP4-Avidin(N)
T5 sequence (P07333 85-223 limits assumed): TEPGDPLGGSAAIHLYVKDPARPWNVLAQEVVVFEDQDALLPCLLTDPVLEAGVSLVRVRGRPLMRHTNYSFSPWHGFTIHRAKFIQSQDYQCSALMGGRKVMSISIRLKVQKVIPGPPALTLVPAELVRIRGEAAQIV

[13] = target: T4, avidin-c-fms Ig-like 1 domain fusion …; test: FACS, biotin beads coated with the avidin fusion protein, FITC-1.2 without competitor
[14] = target: T4, avidin-c-fms Ig-like 1 domain fusion …; test: FACS, biotin beads coated with the avidin fusion protein, FITC-1.109 without competitor

antibody concentration that reduced CSF-1-induced pTyr/c-fms to background, 293T/c-fms cells [1] | AML-5 bioassay IC50 [2] | Cynomolgus bone marrow bioassay IC50 [3] | AML-5 proliferation IC50 [4] | Cynomolgus Bone Marrow Proliferation IC50 [5] | Kd [6] | Kd [7] | Ki [8] | Ki [9] | binding result [10] | Kd [11] | koff [11] | kon [11] | binding result [12] | antibody concentration that prevented CSF-1-induced pTyr/c-fms, 293T/c-fms cells [1] | binding result [13] | binding result [14] | Binder
1 µg/ml | 0.06 nM | 0.067 nM | 0.06 nM | 0.067 nM | 0.535 nM | 0.535 nM | ~0.16 nM | ~0.16 nM | no binding (tested: 1 µg/ml) | 0.535 nM | 0.000667 s⁻¹ | 1.25e+06 M⁻¹ s⁻¹ | no binding (tested: 1 µg/mL) |  |  |  | B1
0.1 µg/ml | 0.027 nM | 0.078 nM | 0.027 nM | 0.078 nM | 0.516 nM | 0.516 nM | 0.0085 nM | 0.0085 nM |  | 0.516 nM | 0.00198 s⁻¹ | 3.84e+06 M⁻¹ s⁻¹ | no binding (tested: 1 µg/mL) | ≥ 0.1 µg/ml | no binding (tested: 1 µg/ml) |  | B2
0.1 µg/ml | 0.027 nM | 0.016 nM | 0.027 nM | 0.016 nM | 0.051 nM | 0.051 nM | 0.0135 nM | 0.0135 nM |  | 0.051 nM | 0.000129 s⁻¹ | 2.54e+06 M⁻¹ s⁻¹ | no binding (tested: 1 µg/mL) | ≥ 0.1 µg/ml |  | no binding (tested: 1 µg/ml) | B3
